Drawing on article PMC5849716, this text covers fold change and other: suppressed fold change for twelve substances.

For the experiment, the target named is 14-3-3τ (UniProt P27348). The experiment is described as follows: split luciferase kinase inhibitor screen. The settings on record: reference: DMSO-treated; sites S127.
In the case of “YAP (YAP1) 120-134 (from UniProt P46937) API-2 (PKB), 10 μM 4 h”, the fold change is 10.6.

For the substance “YAP (YAP1) 120-134 (from UniProt P46937) BIO (GSKa/b), 10 μM 4 h”, the fold change amounted to 14.4.

On to “YAP (YAP1) 120-134 (from UniProt P46937) CGK 733 (ATM/ATR), 10 μM 4 h”, for which the other: suppressed fold change was 1.85.

In the case of “YAP (YAP1) 120-134 (from UniProt P46937) ER 27319 (SYK), 10 μM 4 h”, the other: suppressed fold change turned out to be 3.71.

In the case of “YAP (YAP1) 120-134 (from UniProt P46937) GSK650394 (SGK), 10 μM 4 h”, the other: suppressed fold change came to 1.73.

The substance “YAP (YAP1) 120-134 (from UniProt P46937) Genistein (EGFR), 10 μM 4 h” registered a fold change of 6.12.

Consider “YAP (YAP1) 120-134 (from UniProt P46937) PD 98059 (MEK), 10 μM 4 h”, for which the fold change was found to be 16.9.

The substance “YAP (YAP1) 120-134 (from UniProt P46937) PD 407824 (CHK1), 10 μM 4 h” gave an other: suppressed fold change of 1.73.

Substance “YAP (YAP1) 120-134 (from UniProt P46937) Ro 08-2750 (TrkA), 10 μM 4 h” had an other: suppressed fold change of 6.51.

“YAP (YAP1) 120-134 (from UniProt P46937) Ro 31-8220 (General), 10 μM 4 h” displayed an other: suppressed fold change of 5.21.

Regarding “YAP (YAP1) 120-134 (from UniProt P46937) Ryuvidine (CDK4), 10 μM 4 h”, the fold change came to 5.88.

“YAP (YAP1) 120-134 (from UniProt P46937) SU 4312 (VEGFR1/2), 10 μM 4 h” registered a fold change of 27.9.
